The text below walks through data of the nanobody polyreactivity screen of Harvey et al. (2022).

A short description of the data set: yeast display, Sf9 membrane polyspecificity reagent, FACS + sequencing; frameworks hold sequencing errors. In outline:
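In a synthetic yeast display library (Saccharomyces cerevisiae BJ5465), nanobody expression was induced with galactose for 36–48 hours. FACS gates were set low and high (top ~1%) using anti-HA fluorescence for expression and streptavidin fluorescence for binding of the Sf9 membrane reagent. Each polyreactivity label is drawn from the gate of origin.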
In the case of “QVQLVESGGGLVQAGGSLRLSCAASGFTFHSYAMGWYRQAPGKERELVAAISRGGGSTYYADSVKGRFTISRDNAKYTVYLQMNSLKPEDTAVYYCAARGQGGYRVGYYYWGQGTQVTVSS”, the “polyreactivity (PSR sort gate)” value is reported as “high polyreactivity”. Regarding “QVQLVESGGGLVQAGGSLRLSCAASGFTFHSYAMGWYRQAPGKERELVAAISTGGTRTYYADSVMGRVTISRDNAKNTVYLQMNSLKPEDTAVYYCAADLYRGVRIYSKYDSWGQGTQVTVSS”, the “polyreactivity (PSR sort gate)” value is “high polyreactivity”. Consider “QVQLVESGGGLVQAGGSLRLSCAASGFTFHWYAMGWYRQAPGKERELVAAISSGSSTYYADSVKGRFTISRDNAKNTVYLQMKSLKPEDTAVYYCNVVLYKYSPTESWITYDYWGQGTQVTVSS”, for which the “polyreactivity (PSR sort gate)” value was “low polyreactivity”. Consider “QVQLVESGGGLVQAGGSLRLSCAASGFTFHYYDMGWYRQAPGKERELVASISWSGGDTYYADSVKGRFTISRDNAKNTVYLQMNSLKPEDTAVYYCAADPTQEVQYLTPYTYDYWGQGTQVTVSS”, for which the “polyreactivity (PSR sort gate)” value is given as “low polyreactivity”. Consider “QVQLVESGGGLVQAGGSLRLSCAASGFTFIGNAMGWYRQAPGKERELVAAISWRGGSTYYADSVKGRFTISRDNAKNTVYLQMNSLKPEDTAVYYCNKVPRRVSRSERDYWGQGTQVTVSS”, for which the “polyreactivity (PSR sort gate)” value is “high polyreactivity”. In the case of “QVQLVESGGGLVQAGGSLRLSCAASGFTFIHYGMGWYRQAPGKERELVAAITWRGDRTYADSVKGRFTISRDNAKNTVYLQMNSLKPEDTAVYYCAVGFYYFSSWYSYDYWGQGTQVTVSS”, the “polyreactivity (PSR sort gate)” value is “high polyreactivity”. Turning to “QVQLVESGGGLVQAGGSLRLSCAASGFTFIPNAMGWYRQAPGKERELVAAISTGGSTYYADSVKGRFTISRDNAKNTVYLQMNSLKPEDTAVYYCAAGILVLKLYFSSYDYWGQGTEVTVSS”, the “polyreactivity (PSR sort gate)” value was “low polyreactivity”. “QVQLVESGGGLVQAGGSLRLSCAASGFTFIRNAMGWYRQAPGKDRELVAAISRSGGSTYYADSVKGRFTISRDNAKYTVYLQMNSLKPEDTAVYYCPVTLYLKWQGGAYDYWGQGTQVTVSS”: the “polyreactivity (PSR sort gate)” value is recorded as “low polyreactivity”. As to “QVQLVESGGGLVQAGGSLRLSCAASGFTFIRNGMGWYRQAPGKERELVAAITTSGSGTYYADSVKGRFTISRDNAKNTVYLQMNSLKPEDTAVYYCATDYRYRSYSRGAHDYWGQGTQVTVSS”, the “polyreactivity (PSR sort gate)” value is “low polyreactivity”. Turning to “QVQLVESGGGLVQAGGSLRLSCAASGFTFISKAMGWYRQAPGKERELVAAISSSGGRTYYADSVKGRFTISRDHAKYTVYLQMNSLKPEDTALYYCNADRSLLYSRKIEYDYWGQGTQVTVSS”, the “polyreactivity (PSR sort gate)” value is given as “low polyreactivity”. In the case of “QVQLVESGGGLVQAGGSLRLSCAASGFTFISYAMGWYSQAPGQERELVAAISSTGGSTYYADSVKGRFTSSRDTAKKTVYLQMNSLKPEETAVYYCNAVYWYTSEYDYWGQGTQVTVSS”, the “polyreactivity (PSR sort gate)” value is recorded as “high polyreactivity”.

On to “QVQLVESGGGLVQAGGSLRLSCAASGFTFITNAMGWYRQAPGNERELVASISIGGSTNYADSVKGRFTISRDNAKNTVYLQMTSLKPEDTAVYYCAARVYRRLFLPGRYGRPLGYWGQGTQVTVSS”, for which the “polyreactivity (PSR sort gate)” value was “high polyreactivity”. Turning to “QVQLVESGGGLVQAGGSLRLSCAASGFTFITYAMGGHRQAPGKERELVAAIRTGGGTNYADSVKGRFTISRDNAKNTVYLQMNSLKPEDTAVYYCAKGRQGVSYLTGTYGCRYYWGQGTQVTVSS”, the “polyreactivity (PSR sort gate)” value was “low polyreactivity”. Regarding “QVQLVESGGGLVQAGGSLRLSCAASGFTFKENTIGRYRQAPGKEMELVAAMSWSGGGTYYADSVKGRFTISRDNGKNTVYLQMNSLKPEDTAVYYCAALQRRDHNGDYWGQGTQVTVSS”, the “polyreactivity (PSR sort gate)” value is on record as “low polyreactivity”. As for “QVQLVESGGGLVQAGGSLRLSCAASGFTFKFNAMGWYRQAPGKERELVAAISYSGGSTYYADSVKGRFTISRDIAKNTVYVQMNSLKPEDTAVYYCAARAYWYGASYYYWGQGTQVTVSS”, the “polyreactivity (PSR sort gate)” value is on record as “high polyreactivity”. In the case of “QVQLVESGGGLVQAGGSLRLSCAASGFTFKFNTMGWYRQAPGKERELVAAISWRGGDTSYADSVKGRFTISRDNAKNTVYLQMNSLKPEDTAVYYCAASPRYPYWYDYWGQGTQVTVSS”, the “polyreactivity (PSR sort gate)” value is “low polyreactivity”.
